Source: paper PMC6662825 (2019)

Biological target: T1, MBP-ZCCHC8^91–211-(GS)3-eYFP (human, UniProt Q6NZY4 91-211)
T1 chain: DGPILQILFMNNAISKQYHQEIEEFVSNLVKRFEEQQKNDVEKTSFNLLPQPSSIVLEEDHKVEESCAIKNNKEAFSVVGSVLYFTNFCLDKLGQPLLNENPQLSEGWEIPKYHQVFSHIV
Assay: MST

Kd: 327 nM
B1: MTR4-KOW (domain or fragment)
chain: HKPKYCLPFLQPGRLVKVKNEGDDFGWGVVVNFSKKSNVKPNSGELDPLYVVEVLLRCSKESLKNSATEAAKPAKPDEKGEMQVVPVLVHLLSAISSVRLYIPKDLRPVDNRQSVLKSIQEVQKRFPDGIPLLDPIDDMGIQD
